Reference: patent publication US20170268001A1, “RNAS WITH TUMOR RADIO/CHEMO-SENSITIZING AND IMMUNOMODULATORY PROPERTIES AND METHODS OF THEIR PREPARATION AND APPLICATION” (THE UNIVERSITY OF CHICAGO, priority 2016, published 2017)

Biological target: T1, RIG-I (Homo sapiens, UniProt O95786)
T1 construct: HEK293 cells overexpressing either the full length RIG-I; host or cells: HEK293; HCT116 also for the qRT-PCR validation
T1 sequence (O95786 1-925): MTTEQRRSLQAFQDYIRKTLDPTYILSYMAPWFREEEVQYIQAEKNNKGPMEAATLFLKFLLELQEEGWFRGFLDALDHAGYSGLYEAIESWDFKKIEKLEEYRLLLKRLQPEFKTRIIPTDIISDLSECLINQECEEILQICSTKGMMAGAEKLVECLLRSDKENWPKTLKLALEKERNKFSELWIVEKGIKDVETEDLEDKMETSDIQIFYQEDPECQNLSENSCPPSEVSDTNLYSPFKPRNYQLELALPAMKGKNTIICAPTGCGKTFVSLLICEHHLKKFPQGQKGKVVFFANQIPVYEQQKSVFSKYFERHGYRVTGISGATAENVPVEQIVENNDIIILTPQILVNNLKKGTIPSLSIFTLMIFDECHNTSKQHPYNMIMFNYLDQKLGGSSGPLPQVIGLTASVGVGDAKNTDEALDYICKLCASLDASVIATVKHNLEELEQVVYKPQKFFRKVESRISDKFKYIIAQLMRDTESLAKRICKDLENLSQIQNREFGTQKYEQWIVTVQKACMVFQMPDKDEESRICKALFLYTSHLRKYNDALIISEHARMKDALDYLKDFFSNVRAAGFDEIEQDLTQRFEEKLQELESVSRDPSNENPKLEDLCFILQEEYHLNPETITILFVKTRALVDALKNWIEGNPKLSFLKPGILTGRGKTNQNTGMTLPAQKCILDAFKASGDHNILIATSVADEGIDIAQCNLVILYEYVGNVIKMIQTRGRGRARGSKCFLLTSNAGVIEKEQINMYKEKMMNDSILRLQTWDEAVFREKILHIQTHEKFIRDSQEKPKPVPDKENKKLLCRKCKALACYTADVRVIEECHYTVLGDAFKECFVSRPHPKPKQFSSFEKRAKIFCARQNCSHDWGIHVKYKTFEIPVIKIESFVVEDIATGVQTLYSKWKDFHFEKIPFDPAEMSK
Assay: HEK293 IFN-beta promoter dual luciferase reporter, RNA stimulation
Type: cell-based
Conditions: in vitro transcribed RNA, RIG-I overexpressing HEK293 cells; also activates endogenous RIG-I
Protocol: We also used reporter HEK293 cells as simple technique to evaluate ability of the given RNA to stimulate IFN-beta production in preliminary in vitro experiments. Technically this was performed as follows: RNA stimulation of HEK293 IFN-beta reporter cells HEK293 cells were seeded in a 24-well plate overnight at a density of 1.5×10^5 cells/ml (75,000 cells/well). Cells were co-transfected with 100 ng of plasmid construct (pCAGGS empty vector, pCAGGS-RIG-I full-length, pCAGGS-RIG-I helicase-RD mutant construct, and […] mutant construct), together with 80 ng of a firefly luciferase reporter gene driven by an IFN-beta promoter and 20 ng of a Renilla luciferase (pRL-null) transfection control. Transfections were performed using a cationic lipid agent, Fugene HD (Promega), at a 3:1 lipid:DNA ratio. Twenty-four hours post-transfection, cells were then stimulated with 1 μg RNA* mixed with Fugene HD at 2:1 lipid: RNA ratio for 24 hours. 20 μl cell lysates were collected in opaque 96-well plates and analyzed for IFN-beta-luciferase and Renilla activity using a BioTek Synergy HT plate reader. The transfection efficiency across different wells was normalized by dividing the IFN-beta luciferase activity with the Renilla activity. All values were further normalized to the unstimulated controls in cells transfected with the empty vector. All pCAGGS RIG-I constructs used in this study were generous gifts from Dr. Jenish Patel and Dr. Adolfo Garcia-Sastre of The Icahn School of Medicine at Mount Sinai in New York City. Synthetic RNA comprised of various stem loop regions of the human U1 snRNA were purchased from IDT Oligos as reported in (Bernard et al., 2012). U1 stem loop I sequence: [NT] ID NO:15); U1 stem loop II sequence: [NT] ID NO:16); U1 stem loop III sequence: [NT] ID NO:17); U1 stem loop IV sequence: [NT] ID NO:18); U1 stem loops I and II sequence: [NT] ID NO:19); U1 stem loops II and III sequence: [NT] ID NO:20). In vitro transcribed U1 RNA stimulation: Full length U1 (pT7U1) plasmid was generously provided by Dr. Joan Steitz (Yale School of Medicine, Yale University). […]

B1: M5: rbRNA, RIG-I agonist, 81 nucleotides, SEQ ID NO:26 (nucleic acid)
chain: GACGAAGACCACAAAACCAGATAAAAAATTATTTTTTATCTGGTTTTGTGGTCTTCGTCTATAGTGAGTCGTATTAATTTC
modifications: listed as DNA, chemistry not given here
With B1 the “IFN-beta stimulatory activity (IFN-beta luciferase reporter)” value was “potent IFN-beta stimulatory activity”.
